Reference: US10513702B2, “Synthetic hammerhead ribozymes with ligand-responsive tertiary interactions” (The Board of Trustees of the Leland Stanford Junior …, priority 2015, dated 2019)

Experiments:
[1] = system: GFP reporter transcript (device in 3′ UTR; GFP/mCherry two-color reporter construct); test: Flow cytometry validation of reconstructed switch/ribozyme sequences in two-color reporter plasmid; type: cell-based, budding yeast strain W303a; settings: for μ (-tgt), median GFP/mCherry ratio (basal level): absence of target ligand, at least 3 independent transformants, ± standard error of the mean
Description: The RNA devices were individually synthesized, integrated into the two-color characterization plasmid, and assayed in yeast via flow cytometry. The μ values obtained from flow cytometry analysis of the reconstructed sequences are tightly correlated with those obtained through the FACS-Seq analysis (FIG. 3a; R^2=0.98). We compared the validated activation ratios (μ−target/μ+target) for several of the best performing switches from the tertiary interaction switch libraries with those from previously optimized RNA devices that function through secondary structure rearrangements (FIG. 3b, Table 1).
Specific switch sequences were synthesized from overlapping oligonucleotides using overlap-extension PCR as described for the device library constructions. These were gap-repair transformed into the yeast two-color screening plasmid along with control plasmids by the lithium acetate/single-stranded carrier DNA/polyethylene glycol method, with each switch sequence verified using Sanger sequencing. At least three individual colonies were picked and inoculated in SC-URA media. Cultures were grown overnight, back-diluted 20:1 to an OD600˜0.07 and then grown 6 hrs in the absence and presence of a ligand target, at the same ligand concentrations as used for the FACS-Seq assays. The cells were then spun down and resuspended in an equal volume of 1×PBS buffer (Life Technologies) with 1% BSA (Fraction V, EMD Millipore) and a DAPI viability dye (Life Technologies). GFP was excited at 488 nm and measured with a bandpass filter of 525/50 nm. mCherry was excited at 561 nm and measured with a bandpass filter of 615/20 nm. DAPI was excited at 405 nm and measured with a bandpass filter of 450/50 nm. Prior to each use, voltages of fluorescence PMT detectors were calibrated with MACSQuant calibration beads to fix GFP and mCherry levels. For each culture, 10 μl of sample was analyzed, which captured 50,000-150,000 events while also providing cell density measurements. The data was analyzed using a custom MATLAB program to gate for mCherry expression above the no-color controls and non-saturating values for GFP and mCherry, and then extract μ, the median GFP/mCherry ratio. Since cultures that contain tetracycline produce non-specific fluorescence in the GFP emission region, the μ values for this condition were corrected by subtracting a fixed offset.
Note that the NGS data is based on cells sorted through a FACSAria II Cell Sorter. An in-house flow cytometer (Miltenyi Biotec MACSQuant VYB) was used for validation measurements. The GFP and mCherry levels are given in arbitrary fluorescence units that differ between the two instruments, but in all cases are treated as a linear function of the actual protein levels in order to compute μ. […]

[2] = system: GFP reporter transcript (device in 3′ UTR; GFP/mCherry two-color reporter construct); test: Flow cytometry dose-response assays on reconstructed theophylline-responsive RNA devices; type: cell-based, budding yeast strain W303a; settings: theophylline 0-20 mM; 4-parameter logistic fit, Hill slope 1.0; [80% confidence interval]
Description: Median GFP/mCherry ratios were computed for at least triplicate independent cultures assayed at theophylline concentrations of 0, 0.16, 0.31, 0.62, 1.25, 2.5, 5, 10, and 20 mM. The data were fit to a 4-parameter logistic model with the Hill slope fixed at 1.0; the 80% confidence interval for the EC50 fit is shown. A range of one standard deviation over the replicates is shown for the mean activity levels and activity ratio.

[3] = system: RNA device self-cleavage (ribozyme); test: In vitro SPR-based ribozyme cleavage assay; type: biochemical; settings: 500 μM MgCl2, 25° C.
Description: Representative FACS-Seq sort identified theophylline-responsive RNA device cleavage kinetics and ligand sensitivity were determined by surface plasmon resonance (SPR), using previously described protocols. Briefly, the RNA device DNA templates were amplified by PCR (PFU Ultrall HS; Agilent) with primers containing overhangs corresponding to the T7 RNAP promoter and cis-blocking sequences that prevent device cleavage during in vitro T7 transcription (Table 2; SPR templates). A second PCR (KAPA HiFi PCR Kit; Kapa Biosystems) with short primers was performed to enrich the product for full-length sequences (Table 2; SPR_fwd_primer, SPR_rev_primer). […]
SPR-based cleavage assays were performed at various theophylline concentrations to generate dose-response curves. The RNA dissociation rate constant (kd) at each theophylline concentration ([theo]) was fit to the sigmoidal equation kd=kd,min+(kd,max)/(1+[theo]/IC50) using MATLAB, where kd,max and kd,min are the maximum and minimum RNA dissociation rate constants, evaluated in absence of and with the highest theophylline concentration assayed, respectively. […]

Molecule | μ (-tgt), median GFP/mCherry ratio (basal level) [1] | Activation Ratio ([1]; 5 mM vs 0 mM theophylline, ± SEM) | EC50 [2] [mM] | kd, ribozyme cleavage (dissociation) rate constant ([3]; 1 mM theophylline) [s⁻¹] | kd, ribozyme cleavage (dissociation) rate constant ([3]; absence of ligand (0 mM theophylline)) [s⁻¹]
sTRSV: wild-type tobacco ringspot virus hammerhead ribozyme, SEQ ID NO: 7; loop I TGTGCTT, loop II GTGA (DNA GCUGUCACCGGAUGUGCUUUCCGGUCUGAUGAGUCCGUGAGGACGAAACAGC; listed as RNA, chemistry not fully specified) [reference compound] | 0.051±0.003 | – | – | – | –
sTRSVctl: inactive control ribozyme with scrambled catalytic core, SEQ ID NO: 8 (DNA GCUGUCACCGGAUGUGCUUUCCGGUACGUGAGGUCCGUGAGGACAGAACAGC; listed as RNA, chemistry not fully specified) [reference compound] | 5.8±0.3 | – | – | – | –
L2b8-t47: previously optimized secondary-structure switching theophylline-responsive RNA device, SEQ ID NO: 3 (nucleic acid, listed as RNA, chemistry not fully specified) DNA: AAACAAACAAAGCUGUCACCGGAUGUGCUUUCCGGUCUGAUGAGUCCGUUGAGUAUACCAGCAUCGUCUUGAUGCCCUUGGCAGACUGUAUACGGAGGACGAAACAGCAAAAAGAAAAAUAAAAA | – | 2.8±0.3 | 5.7 | – | –
L2b8: previously optimized secondary-structure switching theophylline-responsive RNA device, SEQ ID NO: 1 (nucleic acid, listed as RNA, chemistry not fully specified) DNA: AAACAAACAAAGCUGUCACCGGAUGUGCUUUCCGGUCUGAUGAGUCCGUUGUCCAUACCAGCAUCGUCUUGAUGCCCUUGGCAGGGACGGGACGGAGGACGAAACAGCAAAAAGAAAAAUAAAAA | – | – | 4.9 | – | –
L2b8-a1: previously optimized secondary-structure switching theophylline-responsive RNA device, SEQ ID NO: 2 (nucleic acid, listed as RNA, chemistry not fully specified) AAACAAACAAAGCUGUCACCGGAAUCAAGGUCCGGUCUGAUGAGUCCGUUGUCCAUACCAGCAUCGUCUUGAUGCCCUUGGCAGGGACGGGACGGAGGACGAAACAGCAAAAAGAAAAAUAAAAA | 0.109±0.004 | – | 10.4 | 0.00283 | 0.01
